Laboratory results from PMC6555819, “Comprehensive study of nuclear receptor DNA binding provides a revised framework for understanding receptor specificity”.

Legend:
THRa:RXRa = THRa:RXRa (Homo sapiens, UniProt P10827;P19793 full;full); assay: no ligand; PBM; 90 nM : 90 nM RXRa; PBS pH 7.4, 2% milk, 0.02% Triton X-100, 1 mM DTT, BSA, 0.4 mg/ml salmon testes DNA; conditions: tags: His kept;His cleaved; copies: 1;1; label: surface-attached array probe
LXRb:RXRa = LXRb:RXRa (Homo sapiens, UniProt P55055;P19793 full;full); assay: no ligand; PBM; 270 nM : 90 nM RXRa; PBS pH 7.4, 2% milk, 0.02% Triton X-100, 1 mM DTT, BSA, 0.4 mg/ml salmon testes DNA; conditions: tags: His kept;His cleaved; copies: 1;1; label: surface-attached array probe
Method in brief: (§1)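 Probes were double-stranded and carried 34-nt variable regions with direct-repeat seeds, single-nucleotide variants, half-site ablations and random human genomic background sequences, printed on custom Agilent 4×180K protein-binding microarrays. Arrays were incubated 1 h with ligand-free nuclear receptor dimers in PBS pH 7.4, 2% milk, 0.02% Triton X-100, 1 mM DTT, 0.2 mg/mL BSA and 0.4 mg/ml salmon testes DNA. Antibodies against each partner (one per run) detected binding, and scanned fluorescence was regression-normalized. Binding z-scores use the random background probes as reference.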

FXR:RXRa = FXR:RXRa (Homo sapiens, UniProt Q96RI1;P19793 full;full); assay: as above; conditions: tags: His kept;His cleaved; copies: 1;1; label: surface-attached array probe
Method in brief: as §1

RARa:RXRa = RARa:RXRa (Homo sapiens, UniProt P10276;P19793 full;full); assay: as above; conditions: tags: His kept;His cleaved; copies: 1;1; label: surface-attached array probe
RARa:RXRa, sequence (P10276 whole entry, chain 1 of 2): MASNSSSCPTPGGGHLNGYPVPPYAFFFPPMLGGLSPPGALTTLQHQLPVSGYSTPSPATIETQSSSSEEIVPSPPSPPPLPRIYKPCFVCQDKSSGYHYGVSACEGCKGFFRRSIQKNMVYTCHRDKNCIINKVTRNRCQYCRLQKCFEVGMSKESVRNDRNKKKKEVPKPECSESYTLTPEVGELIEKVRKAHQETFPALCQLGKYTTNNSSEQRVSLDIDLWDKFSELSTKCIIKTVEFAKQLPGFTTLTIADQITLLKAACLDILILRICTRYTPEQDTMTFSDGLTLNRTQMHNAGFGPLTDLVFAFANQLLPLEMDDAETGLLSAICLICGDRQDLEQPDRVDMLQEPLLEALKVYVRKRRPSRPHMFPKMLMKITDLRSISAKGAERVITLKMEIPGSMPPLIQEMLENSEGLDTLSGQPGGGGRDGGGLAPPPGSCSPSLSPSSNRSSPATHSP
RARa:RXRa, sequence (P19793 whole entry, chain 2 of 2): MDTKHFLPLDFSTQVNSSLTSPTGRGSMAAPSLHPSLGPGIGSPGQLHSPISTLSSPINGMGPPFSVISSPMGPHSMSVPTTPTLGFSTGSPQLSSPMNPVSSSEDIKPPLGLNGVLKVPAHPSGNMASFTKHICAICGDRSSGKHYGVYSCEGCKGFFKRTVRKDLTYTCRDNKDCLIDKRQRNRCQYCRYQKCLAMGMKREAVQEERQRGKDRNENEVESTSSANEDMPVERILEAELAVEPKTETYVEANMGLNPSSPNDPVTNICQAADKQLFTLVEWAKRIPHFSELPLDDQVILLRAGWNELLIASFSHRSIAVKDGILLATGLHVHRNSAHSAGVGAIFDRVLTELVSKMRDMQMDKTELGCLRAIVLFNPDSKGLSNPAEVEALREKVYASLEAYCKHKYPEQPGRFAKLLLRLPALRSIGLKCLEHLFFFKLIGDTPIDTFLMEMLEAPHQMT
Method in brief: as §1

VDR:RXRa = VDR:RXRa (Homo sapiens, UniProt P11473;P19793 full;full); assay: as above; conditions: tags: His kept;His cleaved; copies: 1;1; label: surface-attached array probe
VDR:RXRa, sequence (P11473 whole entry, chain 1 of 2): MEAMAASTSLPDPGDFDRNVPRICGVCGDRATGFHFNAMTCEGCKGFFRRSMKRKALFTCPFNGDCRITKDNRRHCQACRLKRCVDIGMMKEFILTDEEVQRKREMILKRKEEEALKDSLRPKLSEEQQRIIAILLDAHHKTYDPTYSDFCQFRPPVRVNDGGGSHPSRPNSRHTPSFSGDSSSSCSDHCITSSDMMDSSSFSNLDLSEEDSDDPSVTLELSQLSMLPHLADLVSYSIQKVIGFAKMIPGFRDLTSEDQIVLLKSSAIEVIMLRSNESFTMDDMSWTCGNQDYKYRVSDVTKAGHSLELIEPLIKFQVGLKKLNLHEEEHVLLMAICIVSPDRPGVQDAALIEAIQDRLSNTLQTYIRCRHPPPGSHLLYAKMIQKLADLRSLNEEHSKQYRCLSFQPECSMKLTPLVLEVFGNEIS
VDR:RXRa, sequence (P19793 whole entry, chain 2 of 2): as the sequence (P19793 whole entry, chain 2 of 2) above
Method in brief: as §1

RARb:RXRa = RARb:RXRa (Homo sapiens, UniProt P10826;P19793 full;full); assay: as above; conditions: tags: His kept;His cleaved; copies: 1;1; label: surface-attached array probe
RARb:RXRa, sequence (P10826 whole entry, chain 1 of 2): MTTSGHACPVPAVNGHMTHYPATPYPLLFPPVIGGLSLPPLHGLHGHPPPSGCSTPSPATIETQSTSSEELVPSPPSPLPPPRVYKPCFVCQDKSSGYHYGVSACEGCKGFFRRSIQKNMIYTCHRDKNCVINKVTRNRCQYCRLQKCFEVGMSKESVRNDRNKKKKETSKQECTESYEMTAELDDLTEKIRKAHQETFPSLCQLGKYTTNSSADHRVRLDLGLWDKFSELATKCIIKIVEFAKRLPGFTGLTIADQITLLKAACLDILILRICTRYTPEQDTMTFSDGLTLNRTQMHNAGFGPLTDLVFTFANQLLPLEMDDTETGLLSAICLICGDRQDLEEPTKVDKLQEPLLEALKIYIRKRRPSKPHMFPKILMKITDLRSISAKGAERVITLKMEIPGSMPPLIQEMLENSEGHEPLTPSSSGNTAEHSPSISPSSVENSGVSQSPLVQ
RARb:RXRa, sequence (P19793 whole entry, chain 2 of 2): as the sequence (P19793 whole entry, chain 2 of 2) above
Method in brief: as §1

PXR:RXRa = PXR:RXRa (Homo sapiens, UniProt O75469;P19793 full;full); assay: as above; conditions: tags: His kept;His cleaved; copies: 1;1; label: surface-attached array probe
PXR:RXRa, sequence (O75469 whole entry, chain 1 of 2): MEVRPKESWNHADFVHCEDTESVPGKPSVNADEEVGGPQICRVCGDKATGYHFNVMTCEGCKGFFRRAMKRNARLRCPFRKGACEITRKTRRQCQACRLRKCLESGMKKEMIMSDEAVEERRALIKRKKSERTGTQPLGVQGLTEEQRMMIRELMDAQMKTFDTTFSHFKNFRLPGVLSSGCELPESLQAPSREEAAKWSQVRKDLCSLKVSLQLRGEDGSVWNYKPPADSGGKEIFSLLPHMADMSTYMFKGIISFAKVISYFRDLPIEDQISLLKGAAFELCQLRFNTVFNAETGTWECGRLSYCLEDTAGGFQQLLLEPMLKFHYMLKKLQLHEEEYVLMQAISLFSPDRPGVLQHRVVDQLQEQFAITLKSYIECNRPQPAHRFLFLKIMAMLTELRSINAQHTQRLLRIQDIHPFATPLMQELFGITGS
PXR:RXRa, sequence (P19793 whole entry, chain 2 of 2): as the sequence (P19793 whole entry, chain 2 of 2) above
Method in brief: as §1

RARg:RXRa = RARg:RXRa (Homo sapiens, UniProt P13631;P19793 full;full); assay: as above; conditions: tags: His kept;His cleaved; copies: 1;1; label: surface-attached array probe
RARg:RXRa, sequence (P13631 whole entry, chain 1 of 2): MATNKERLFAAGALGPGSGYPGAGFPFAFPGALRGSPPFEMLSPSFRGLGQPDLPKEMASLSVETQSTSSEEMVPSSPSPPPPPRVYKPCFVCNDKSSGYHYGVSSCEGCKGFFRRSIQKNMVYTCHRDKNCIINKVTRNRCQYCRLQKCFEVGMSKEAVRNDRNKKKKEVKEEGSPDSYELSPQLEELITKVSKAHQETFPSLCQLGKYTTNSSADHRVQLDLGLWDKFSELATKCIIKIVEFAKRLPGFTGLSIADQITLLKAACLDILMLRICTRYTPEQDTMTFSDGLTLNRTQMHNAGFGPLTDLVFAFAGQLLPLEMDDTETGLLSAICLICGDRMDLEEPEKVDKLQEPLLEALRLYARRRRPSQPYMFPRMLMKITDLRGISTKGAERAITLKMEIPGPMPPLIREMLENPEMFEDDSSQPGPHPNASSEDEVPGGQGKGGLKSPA
RARg:RXRa, sequence (P19793 whole entry, chain 2 of 2): as the sequence (P19793 whole entry, chain 2 of 2) above
Method in brief: as §1

LXRa:RXRa = LXRa:RXRa (Homo sapiens, UniProt Q13133;P19793 full;full); assay: as above; conditions: tags: His kept;His cleaved; copies: 1;1; label: surface-attached array probe
Method in brief: as §1

RXRa = RXRa (Homo sapiens, UniProt P19793); assay: no ligand; PBM; 180 nM; PBS pH 7.4, 2% milk, 0.02% Triton X-100, 1 mM DTT, BSA, 0.4 mg/ml salmon testes DNA; conditions: tags: His cleaved; chain copies: 2; label: surface-attached array probe
PPARa:RXRa = PPARa:RXRa (Homo sapiens, UniProt Q07869;P19793 full;full); assay: no ligand; PBM; 270 nM : 90 nM RXRa; PBS pH 7.4, 2% milk, 0.02% Triton X-100, 1 mM DTT, BSA, 0.4 mg/ml salmon testes DNA; conditions: tags: GST kept;His cleaved; copies: 1;1; label: surface-attached array probe
Method in brief: as §1

B1: NRC3_random_hg19_138_o1 (dsDNA)
DNA 1: GCTAGGTTCTCAGAGTAAGAAGTCCATGTTGGTTAGGCGATTGACAGCGTAGAATGAAGG
DNA 2: CCTTCATTCTACGCTGTCAATCGCCTAACCAACATGGACTTCTTACTCTGAGAACCTAGC
**Q.** Which results are given for B1?
**A.** binding signal (THRa:RXRa): 0.16 PBM z-score against 500 random probes; binding signal (LXRb:RXRa): 0.28 PBM z-score against 500 random probes; binding signal (FXR:RXRa): 0.34 PBM z-score against 500 random probes; binding signal (RARa:RXRa): -0.25 PBM z-score against 500 random probes

B2: NRC3_wobSeed73_DR3_T8C_o1 (dsDNA)
DNA 1: GCCAAACCAGGTCACAGAGGTCAAAGTCCGTGCGTAGCGATTGACAGCGTAGAATGAAGG
DNA 2: CCTTCATTCTACGCTGTCAATCGCTACGCACGGACTTTGACCTCTGTGACCTGGTTTGGC
**Q.** Which binding signal (THRa:RXRa) does the source give for B2 here?
**A.** Its binding signal is 5.06 PBM z-score against 500 random probes.

**Q.** What about the binding signal (VDR:RXRa) of the same binder?
**A.** Its binding signal is 8.47 PBM z-score against 500 random probes.

**Q.** And the binding signal (LXRb:RXRa)?
**A.** The binding signal was 6.76 PBM z-score against 500 random probes.

**Q.** And the binding signal (FXR:RXRa)?
**A.** The binding signal was 8 PBM z-score against 500 random probes.

**Q.** And the binding signal (RARa:RXRa)?
**A.** The binding signal was 8.19 PBM z-score against 500 random probes.

B3: NRC3_wobSeed141_DR5_A24C_o1 (dsDNA)
DNA 1: GCAGTCAAAGTTCAGGACGAGGTCACGTAAAGCACGGCGATTGACAGCGTAGAATGAAGG
DNA 2: CCTTCATTCTACGCTGTCAATCGCCGTGCTTTACGTGACCTCGTCCTGAACTTTGACTGC
**Q.** With B3 as the binder, how does the binding signal (THRa:RXRa) read?
**A.** Its binding signal is 5.13 PBM z-score against 500 random probes.

**Q.** What about the binding signal (RARb:RXRa) of the same binder?
**A.** Its binding signal is 5.48 PBM z-score against 500 random probes.

**Q.** And the binding signal (VDR:RXRa)?
**A.** Its binding signal is 6.63 PBM z-score against 500 random probes.

**Q.** What about the binding signal (PXR:RXRa) of the same binder?
**A.** The binding signal was 6.95 PBM z-score against 500 random probes.

**Q.** And the binding signal (RARa:RXRa)?
**A.** Its binding signal is 7.52 PBM z-score against 500 random probes.

**Q.** And the binding signal (RARg:RXRa)?
**A.** The binding signal was 8.19 PBM z-score against 500 random probes.

B4: NRC3_wobSeed72_DR2_G20T_o1 (dsDNA)
DNA 1: GCTCGAGTAGGTTACGGGGTCATTCAGGGATGAAGAGCGATTGACAGCGTAGAATGAAGG
DNA 2: CCTTCATTCTACGCTGTCAATCGCTCTTCATCCCTGAATGACCCCGTAACCTACTCGAGC
**Q.** Which results are given for B4?
**A.** binding signal (THRa:RXRa): 4.85 PBM z-score against 500 random probes; binding signal (PXR:RXRa): 6.49 PBM z-score against 500 random probes; binding signal (RARa:RXRa): 7.48 PBM z-score against 500 random probes

B5: NRC3_wobSeed117_DR4_A23C_o1 (dsDNA)
DNA 1: GCCGTCAAAGTTCAACTAAGGTCACGTAAAGCACGCGCGATTGACAGCGTAGAATGAAGG
DNA 2: CCTTCATTCTACGCTGTCAATCGCGCGTGCTTTACGTGACCTTAGTTGAACTTTGACGGC
**Q.** How did the binding signal (THRa:RXRa) turn out when B5 was run?
**A.** The binding signal was 5.72 PBM z-score against 500 random probes.

**Q.** And the binding signal (RARb:RXRa)?
**A.** Its binding signal is 6.07 PBM z-score against 500 random probes.

**Q.** What about the binding signal (VDR:RXRa) of the same binder?
**A.** Its binding signal is 7.49 PBM z-score against 500 random probes.

**Q.** What about the binding signal (LXRa:RXRa) of the same binder?
**A.** The binding signal was 8.08 PBM z-score against 500 random probes.

**Q.** And the binding signal (LXRb:RXRa)?
**A.** The binding signal was 7.09 PBM z-score against 500 random probes.

**Q.** And the binding signal (FXR:RXRa)?
**A.** Its binding signal is 7.83 PBM z-score against 500 random probes.

**Q.** What about the binding signal (PXR:RXRa) of the same binder?
**A.** Its binding signal is 7.87 PBM z-score against 500 random probes.

**Q.** And the binding signal (RARa:RXRa)?
**A.** Its binding signal is 7.16 PBM z-score against 500 random probes.

**Q.** And the binding signal (RARg:RXRa)?
**A.** Its binding signal is 7.95 PBM z-score against 500 random probes.

B6: NRC3_wobSeed100_DR4_C12T_o1 (dsDNA)
DNA 1: GCCCTACTGGGTCACGAAAGGTCATTGATTCAGTGAGCGATTGACAGCGTAGAATGAAGG
DNA 2: CCTTCATTCTACGCTGTCAATCGCTCACTGAATCAATGACCTTTCGTGACCCAGTAGGGC
**Q.** For B6, which binding signal (THRa:RXRa) is on record?
**A.** The binding signal was 5.47 PBM z-score against 500 random probes.

**Q.** What about the binding signal (RARb:RXRa) of the same binder?
**A.** The binding signal was 5.53 PBM z-score against 500 random probes.

**Q.** What about the binding signal (LXRa:RXRa) of the same binder?
**A.** The binding signal was 8.11 PBM z-score against 500 random probes.

**Q.** And the binding signal (LXRb:RXRa)?
**A.** Its binding signal is 6.66 PBM z-score against 500 random probes.

**Q.** What about the binding signal (PXR:RXRa) of the same binder?
**A.** The binding signal was 7.22 PBM z-score against 500 random probes.

**Q.** And the binding signal (RARa:RXRa)?
**A.** The binding signal was 7.1 PBM z-score against 500 random probes.

B7: NRC3_wobSeed133_DR5_T19G_o1 (dsDNA)
DNA 1: GCCGTCCAAGGTCAATGCGAGGTCAGTGAAAGCATTGCGATTGACAGCGTAGAATGAAGG
DNA 2: CCTTCATTCTACGCTGTCAATCGCAATGCTTTCACTGACCTCGCATTGACCTTGGACGGC
**Q.** How did the binding signal (THRa:RXRa) turn out when B7 was run?
**A.** Its binding signal is 5.07 PBM z-score against 500 random probes.

**Q.** And the binding signal (PXR:RXRa)?
**A.** The binding signal was 6.42 PBM z-score against 500 random probes.

**Q.** What about the binding signal (RARa:RXRa) of the same binder?
**A.** The binding signal was 7.03 PBM z-score against 500 random probes.

**Q.** And the binding signal (RARg:RXRa)?
**A.** The binding signal was 8.33 PBM z-score against 500 random probes.

B8: NRC3_random_hg19_257_o1 (dsDNA)
DNA 1: GCACACTGACAATAGCATACACCTTTCCAGAATGCGGCGATTGACAGCGTAGAATGAAGG
DNA 2: CCTTCATTCTACGCTGTCAATCGCCGCATTCTGGAAAGGTGTATGCTATTGTCAGTGTGC
**Q.** For B8, which binding signal (THRa:RXRa) is on record?
**A.** The binding signal was 0.05 PBM z-score against 500 random probes.

**Q.** And the binding signal (PXR:RXRa)?
**A.** Its binding signal is 0.17 PBM z-score against 500 random probes.

**Q.** What about the binding signal (RARa:RXRa) of the same binder?
**A.** Its binding signal is 0.41 PBM z-score against 500 random probes.

B9: NRC3_random_hg19_360_o1 (dsDNA)
DNA 1: GCGCCTGCATAGCCATTCACAGACACTGCCAATACCGCGATTGACAGCGTAGAATGAAGG
DNA 2: CCTTCATTCTACGCTGTCAATCGCGGTATTGGCAGTGTCTGTGAATGGCTATGCAGGCGC
**Q.** What does the source list for B9?
**A.** binding signal (RXRa): -0.49 PBM z-score against 500 random probes; binding signal (THRa:RXRa): -0.43 PBM z-score against 500 random probes; binding signal (PPARa:RXRa): -0.57 PBM z-score against 500 random probes; binding signal (LXRb:RXRa): -0.18 PBM z-score against 500 random probes; binding signal (RARa:RXRa): -0.36 PBM z-score against 500 random probes

B10: NRC3_random_hg19_192_o1 (dsDNA)
DNA 1: GCGCAGGAAGCCCTCCTCCAGCTTACAGTGGAACTCGCGATTGACAGCGTAGAATGAAGG
DNA 2: CCTTCATTCTACGCTGTCAATCGCGAGTTCCACTGTAAGCTGGAGGAGGGCTTCCTGCGC
**Q.** For B10, which binding signal (THRa:RXRa) is on record?
**A.** Its binding signal is -0.77 PBM z-score against 500 random probes.

**Q.** And the binding signal (LXRb:RXRa)?
**A.** The binding signal was -1.14 PBM z-score against 500 random probes.

**Q.** What about the binding signal (RARa:RXRa) of the same binder?
**A.** Its binding signal is -1.09 PBM z-score against 500 random probes.
